No end group written: not given here.
T1: S100A1 (Homo sapiens, UniProt P23297)
T1 chain: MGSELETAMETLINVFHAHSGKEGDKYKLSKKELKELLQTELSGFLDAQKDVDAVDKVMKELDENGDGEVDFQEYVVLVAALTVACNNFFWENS


Legend:
S100A1 = target: T1, S100A1; test: fluorescence anisotropy
Calmodulin = Calmodulin (Homo sapiens, UniProt P0DP23); test: fluorescence anisotropy

| Binder | Kd (S100A1) [nM] | Kd (Calmodulin) [nM] |
| --- | --- | --- |
| PFIVISHLRLLLRQLCRRPRS (also: Ca2+) [TRPM4 (M4ct_WT)] | 12000 | 2600 |
| FGECYRSSEVRAARLLLRRCPL (cysteine pairing not given here; also: Ca2+) [TRPM4 (M4nt_WT)] | 2700 | 1300 |
